± gives the standard error. For some of these results: Fewer inactive variants are shown than the library holds.
B1: glmS ribozyme (parent)
chain: AUAAAAGCGCCAGAACUACAGAAAUGUAGUUGACGAGGAGGAGGUUUAUCGAAUUUUCGGCGGAUGCCUCCAAA

Legend:
Conditions in all cases: with glucosamine-6-phosphate
[1] = variants of: B1; experiment: kcat; higher = faster cleavage; RNA array
In short: (§1)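 Barcoded glmS ribozyme variants on sequenced MiSeq chips were transcribed in situ by E. coli RNA polymerase and tracked through a hybridised Cy3 probe at 37 °C. Glucosamine-6-phosphate (40 μM to 10 mM) in HEPES/KCl/Mg(OAc)2 buffer was flowed in, and tiles were imaged over ~14 h. Signals were normalised to baseline and to non-cleaving reference variants; per-tile medians were fit to one- or two-exponential decays to give kobs. kcat and KM came from weighted Michaelis–Menten fits across concentrations.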

[2] = variants of: B1; experiment: KM; higher = weaker cofactor use; RNA array
In short: as §1

[3] = variants of: B1; experiment: self-cleavage kobs at 640 uM GlcN6P; higher = faster cleavage; RNA array
In short: as §1

[4] = variants of: B1; experiment: self-cleavage kobs at 2500 uM GlcN6P; higher = faster cleavage; RNA array
In short: as §1

[5] = variants of: B1; experiment: self-cleavage kobs at 10000 uM GlcN6P; higher = faster cleavage; RNA array
In short: as §1

[6] = variants of: B1; experiment: self-cleavage kobs at 160 uM GlcN6P; higher = faster cleavage; RNA array
In short: as §1

[7] = variants of: B1; experiment: self-cleavage kobs at 40 uM GlcN6P; higher = faster cleavage; RNA array
In short: as §1

Variant | kcat [1] [s⁻¹] | KM [2] [µM] | self-cleavage kobs at 640 uM GlcN6P [3] [s⁻¹] | self-cleavage kobs at 2500 uM GlcN6P [4] [s⁻¹] | self-cleavage kobs at 10000 uM GlcN6P [5] [s⁻¹] | self-cleavage kobs at 160 uM GlcN6P [6] [s⁻¹] | self-cleavage kobs at 40 uM GlcN6P [7] [s⁻¹]
AUAAAAGCGCCAGAACUACAGAAAUGUAGUUGACGAGGAAUAGGUUUAUCGAAUUUUCGGCGGAUGCCUCCAAA [G40A G41U] | 7.26e-05 ± 2.3e-06 | 1160 ± 110 | 2.54e-05 ± 8.5e-06 | 5.29e-05 ± 1.9e-05 | 6.43e-05 ± 1.3e-05 |  | 
AUAAAAGCGCCAGAAAUACAGAAAUGUAGUUGACGAGGAGGAGGUUUAUCGAAUUUUCGGCGGAUGCCCCCAAA [C16A U69C] | 0.00012 ± 3.2e-05 |  | 9.93e-05 ± 2.2e-05 | 7.87e-05 ± 2.2e-05 | 0.000168 ± 4e-05 |  | 
AUAAAAGCGCCAGAACUACAGAAAUGUAGUUGACGAGGAGGAGGCUUAUCGAAUUGUCGGCGGAUGCCUCCAAA [U45C U56G] | 0.00225 ± 0.00059 | 4840 ± 1800 | 0.000335 ± 4.1e-05 | 0.000677 ± 0.00011 | 0.00156 ± 0.00019 | 5.85e-05 ± 1.2e-05 | 
AUAAAAGCGCCAGAACUACAGAAAUGUAGUUGACGAGGAGGUGGUUUAUCGAAUUUUCGGCGGAUGACUCCAAA [A42U C67A] | 0.00217 ± 0.00044 | 1400 ± 460 | 0.00067 ± 9.7e-05 | 0.00183 ± 0.00029 | 0.00183 ± 0.00019 | 0.000151 ± 3.4e-05 | 7.75e-05 ± 9.8e-06
AUAAAAGCGCCAGAACUACAGAAAUGUAGUUGACGAGGUGGAGGUUUAUCGAAUUUUCGGCGGAUGCCUCAAAA [A39U C71A] | 0.00326 ± 0.00043 | 1880 ± 370 | 0.000728 ± 0.00015 | 0.00175 ± 0.00039 | 0.0028 ± 0.00031 | 0.000353 ± 6.3e-05 | 6.47e-05 ± 9.1e-06
AUAAAAGCGCCAGAUCUACAGAAAUGUAGUUGACGAGGAGGAGGCUUAUCGAAUUUUCGGCGGAUGCCUCCAAA [A15U U45C] | 0.000662 ± 6.5e-05 | 5870 ± 1000 | 6.91e-05 ± 1.5e-05 | 0.000187 ± 4.3e-05 | 0.000419 ± 4.9e-05 |  | 
AUAAAAGCGCCAGAACUACAGAAAUGUACUUGACGAGGAGGAGGUUUAUCGAAUUUUCGGCGGAUUCCUCCAAA [G29C G66U] | 6.74e-05 ± 1.2e-05 |  |  | 7.9e-05 ± 2e-05 | 5.98e-05 ± 1e-05 |  | 

— the supplement of paper PMC7125110
